± gives the standard deviation of the averaged measurements.
Each sequence was assayed on Saccharomyces cerevisiae (assay: protein stability index of tFT-peptide fusion (C-terminal peptide) (PSI (0-1 scale)); higher = more stable (slower turnover)). Conditions: genetic background: wild type; temperature: 30 C.
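Also: PSI is a weighted mean of sequencing reads over stability bins, variants kept only with over 10 reads, mCherry proximal and sfGFP distal, peptide attached via GGGS linker.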

VARPEWWSGGGS and VARPMHFIRYGK are within error of each other in protein stability index: 0.727 ± 0.03 for the first, 0.716 ± 0.018 for the second.

VARRGLFLSISW and VASFLRFRLPPQ are within error of each other in protein stability index: 0.596 ± 0.088 for the first, 0.71 ± 0.083 for the second.

VASPAPALRPPL and VAVDGSDQGGTR are within error of each other in protein stability index: 0.746 ± 0.093 for the first, 0.64 ± 0.079 for the second.

First: VAVGHWGIVPLW
Second: VAVMPKPLGVVR
The protein stability index of the first is higher: 0.725 ± 0.08 for the first, 0.552 ± 0.046 for the second.

VAVWGAIRHASN and VCARAGRALEDS are within error of each other in protein stability index: 0.718 ± 0.033 for the first, 0.674 ± 0.08 for the second.

VCAVRVGGGGEG and VCFLFGLVGFGS are within error of each other in protein stability index: 0.601 ± 0.04 for the first, 0.597 ± 0.0085 for the second.

VCGGRLVGWGGW and VCGSGGGCWGGG are within error of each other in protein stability index: 0.729 ± 0.1 for the first, 0.622 ± 0.0096 for the second.

VCICDRLASRDV and VCNFQIGGDRGV are within error of each other in protein stability index: 0.733 ± 0.067 for the first, 0.71 ± 0.052 for the second.

VCRCWGGKGQDS and VCRGRGGEGIGW are within error of each other in protein stability index: 0.71 ± 0.012 for the first, 0.721 ± 0.096 for the second.

VCRVGGVMAGDT and VCSLTFFGLCRP are within error of each other in protein stability index: 0.669 ± 0.049 for the first, 0.69 ± 0.025 for the second.

Going from VCSYISGRKSVL to VCVCSVPNLGLW, the protein stability index rises from 0.568 ± 0.0048 to 0.675 ± 0.029.

VCVSCTPALLFL and VDGRIYIGIISR are within error of each other in protein stability index: 0.608 ± 0.056 for the first, 0.677 ± 0.032 for the second.

Compared with VDSPFPTPLPLI, VDWVEAYVCVGV is lower in protein stability index: 0.685 ± 0.087 for the first, 0.538 ± 0.024 for the second.

VEASRSCTKLDG and VEDRTTNVLNIT are within error of each other in protein stability index: 0.675 ± 0.02 for the first, 0.682 ± 0.027 for the second.

Going from VEGFVPEDGKEE to VELEPPVCVFLL, the protein stability index falls from 0.684 ± 0.024 to 0.6391 ± 0.0017.

First: VEQSYKESVNLD
Second: VESDREPIFGCA
The protein stability index of the first is higher: 0.682 ± 0.017 for the first, 0.65467 ± 0.00014 for the second.

Going from VEVRVRCVGGRV to VFACDTRHWSFD, the protein stability index rises from 0.703 ± 0.068 to 0.796 ± 0.019.

Going from VFARKARGFDDV to VFAVGRPGRGVV, the protein stability index falls from 0.7188 ± 0.0065 to 0.648 ± 0.014.

First: VFGPRSIARGAI
Second: VFHLFSAVSLRL
The protein stability index of the first is higher: 0.727 ± 0.12 for the first, 0.592 ± 0.0084 for the second.

VFITSLWTPLLL and VFLRGSVLGLCI are within error of each other in protein stability index: 0.617 ± 0.019 for the first, 0.606 ± 0.034 for the second.

First: VFLRSGCSGGGE
Second: VFLTASVLVAPF
The protein stability index of the first is higher: 0.799 ± 0.063 for the first, 0.575 ± 0.015 for the second.

VFPPTPPTVPRG and VFPWRDSNLYAS are within error of each other in protein stability index: 0.727 ± 0.0077 for the first, 0.713 ± 0.021 for the second.

Going from VFRPFVLPLMFP to VFSARVVGGVLF, the protein stability index rises from 0.611 ± 0.053 to 0.681 ± 0.011.

First: VFSTFGSCHICC
Second: VFVCFMSHLRGS
The protein stability index of the first is higher: 0.636 ± 0.033 for the first, 0.58 ± 0.012 for the second.

Going from VFVPCIFRQIAG to VFYVGGGAVVRG, the protein stability index rises from 0.6096 ± 0.0019 to 0.689 ± 0.023.

Going from VFYVGGGSVVRG to VGAGRGKGRGGG, the protein stability index falls from 0.663 ± 0.011 to 0.617 ± 0.013.

VGASRFRLSNCF and VGCLGGCGCGGV are within error of each other in protein stability index: 0.677 ± 0.02 for the first, 0.716 ± 0.07 for the second.

VGCQAIESRLHL and VGCSGGRGAGVV are within error of each other in protein stability index: 0.737 ± 0.077 for the first, 0.649 ± 0.018 for the second.

VGCSGVYIWGNL and VGDIGLEVKLFF are within error of each other in protein stability index: 0.707 ± 0.015 for the first, 0.72 ± 0.0076 for the second.

VGDPHPIMQSLL and VGEVAGRWCGRG are within error of each other in protein stability index: 0.773 ± 0.049 for the first, 0.7 ± 0.025 for the second.

Compared with VGFGEGCLSFPF, VGFRMAMVVGGL is lower in protein stability index: 0.668 ± 0.072 for the first, 0.519 ± 0.026 for the second.

VGFSVLGGRAGW and VGGGAVRAWGLR are within error of each other in protein stability index: 0.712 ± 0.044 for the first, 0.688 ± 0.028 for the second.

Compared with VGGGGAVDGRSG, VGGGLGGGVVLV is lower in protein stability index: 0.7298 ± 0.0025 for the first, 0.6993 ± 0.0011 for the second.

Going from VGGGPVWREPGT to VGGGRGGVVRSG, the protein stability index falls from 0.796 ± 0.025 to 0.654 ± 0.1.

First: VGGRDDGFVWEG
Second: VGGRDWADSLVV
The protein stability index of the first is lower: 0.667 ± 0.031 for the first, 0.772 ± 0.015 for the second.

VGGVVWIGGVVG and VGIRTFFRFRMR are within error of each other in protein stability index: 0.667 ± 0.074 for the first, 0.6692 ± 0.0014 for the second.

First: VGKCGSGCLHST
Second: VGLTGFSQLGDG
The protein stability index of the first is lower: 0.6313 ± 0.004 for the first, 0.675 ± 0.032 for the second.

Going from VGPCGGVGHLGS to VGPRGFYSFVGG, the protein stability index falls from 0.73 ± 0.036 to 0.665 ± 0.014.

First: VGRENNENREEE
Second: VGRPGGVAQHRG
The protein stability index of the first is lower: 0.629 ± 0.021 for the first, 0.734 ± 0.077 for the second.

Going from VGSCGAPRLPWP to VGSFVGSREGVW, the protein stability index falls from 0.732 ± 0.038 to 0.613 ± 0.029.

VGSGEWTRAMNR and VGSLCSRLGRRS are within error of each other in protein stability index: 0.673 ± 0.062 for the first, 0.765 ± 0.13 for the second.

VGSLFGFGGRWV and VGSPPVWAAVWG are within error of each other in protein stability index: 0.645 ± 0.0082 for the first, 0.614 ± 0.12 for the second.

VGSVVRGLVGPY and VGTSVTSSFRGK are within error of each other in protein stability index: 0.717 ± 0.19 for the first, 0.591 ± 0.078 for the second.

Going from VGVAREGQVGAA to VGVCLVSLGSWL, the protein stability index falls from 0.694 ± 0.024 to 0.605 ± 0.013.

VGVGAGQWVVWY and VGVGWWVGLWGL are within error of each other in protein stability index: 0.682 ± 0.028 for the first, 0.693 ± 0.011 for the second.

First: VGVPFLVVGVGV
Second: VGVSLVLPDWDV
The protein stability index of the first is lower: 0.583 ± 0.00081 for the first, 0.693 ± 0.053 for the second.

VGWGECPKVECV and VGWGWGGGVVLV are within error of each other in protein stability index: 0.599 ± 0.1 for the first, 0.692 ± 0.0098 for the second.

VGYGTGGAVGVE and VHCGTEPRGPRH are within error of each other in protein stability index: 0.691 ± 0.041 for the first, 0.709 ± 0.027 for the second.

VHENVGSGYNLE and VHPRFSFGPHFV are within error of each other in protein stability index: 0.734 ± 0.14 for the first, 0.7027 ± 0.00094 for the second.

VHRKGGRLEILG and VHRRRVSVGGGA are within error of each other in protein stability index: 0.64 ± 0.033 for the first, 0.721 ± 0.05 for the second.

Compared with VHSGKGRQAKER, VIACLCGGVMWV is lower in protein stability index: 0.715 ± 0.048 for the first, 0.577 ± 0.0008 for the second.

Compared with VIEWFVRGRVGG, VIGWACLCFGAI is lower in protein stability index: 0.7032 ± 0.00085 for the first, 0.555 ± 0.0063 for the second.

VILCPVCFPEEK and VIMGRGGGNVGG are within error of each other in protein stability index: 0.66459 ± 0.00057 for the first, 0.701 ± 0.053 for the second.

VIMNPGNDFLQK and VINKHYINKCQG are within error of each other in protein stability index: 0.702 ± 0.011 for the first, 0.638 ± 0.088 for the second.

VIPSCMVFSSTG and VITAYHSLTYGA are within error of each other in protein stability index: 0.71 ± 0.049 for the first, 0.6878 ± 0.0038 for the second.

Going from VITCGLVLRSVR to VITFPAFLPISN, the protein stability index rises from 0.652 ± 0.031 to 0.702 ± 0.017.

First: VIVRAFRWNLVR
Second: VKTGIKQSLTEP
The protein stability index of the first is lower: 0.605 ± 0.029 for the first, 0.6982 ± 0.0037 for the second.

VKTSRASLSGKL and VLAPPPLLPPPY are within error of each other in protein stability index: 0.805 ± 0.12 for the first, 0.6843 ± 0.0021 for the second.

VLCIYKLSQVRL and VLFGLSTSSLCL are within error of each other in protein stability index: 0.654 ± 0.049 for the first, 0.644 ± 0.075 for the second.

Compared with VLFHWAGFFLFL, VLFPSPSPPLSS is higher in protein stability index: 0.525 ± 0.029 for the first, 0.7 ± 0.0071 for the second.

First: VLFSCLSLCWVF
Second: VLGFGSVPAWIE
The protein stability index of the first is lower: 0.6081 ± 0.005 for the first, 0.776 ± 0.048 for the second.

Going from VLGIVEKRGILR to VLGPWVLSVLWF, the protein stability index falls from 0.773 ± 0.11 to 0.546 ± 0.022.

VLHLVGFDADVV and VLKYSVQHREFS are within error of each other in protein stability index: 0.725 ± 0.021 for the first, 0.685 ± 0.019 for the second.

First: VLLAGRLEEGGE
Second: VLLLLLSLLFGV
The protein stability index of the first is higher: 0.65 ± 0.087 for the first, 0.5135 ± 0.0023 for the second.

Going from VLLSSWLIWLGG to VLMGGCGSWMAV, the protein stability index rises from 0.62 ± 0.01 to 0.6771 ± 0.0044.

VLPAGAGKGCVG and VLPSSSPPGLRC are within error of each other in protein stability index: 0.653 ± 0.052 for the first, 0.6698 ± 0.0059 for the second.

First: VLQSLRSLRRLG
Second: VLRRCGRERGIF
The protein stability index of the first is lower: 0.549 ± 0.071 for the first, 0.688 ± 0.034 for the second.

VLRRRPNDMRKF and VLSEHRGLPLTR are within error of each other in protein stability index: 0.6939 ± 0.0062 for the first, 0.659 ± 0.066 for the second.

VLSLPLPSLSLN and VLSPLIGRICGH are within error of each other in protein stability index: 0.725 ± 0.18 for the first, 0.658 ± 0.01 for the second.

Going from VLSSPPVPAPRP to VLSYFFLFSCAS, the protein stability index falls from 0.701 ± 0.051 to 0.502 ± 0.098.

VLVGWWGLGGGV and VLVYISDLKRSL are within error of each other in protein stability index: 0.642 ± 0.046 for the first, 0.689 ± 0.14 for the second.

Compared with VLWLPPSPTPNL, VMCECALLVQSR is lower in protein stability index: 0.721 ± 0.1 for the first, 0.563 ± 0.028 for the second.

Compared with VMCWARGWVGST, VMGFCDWLGVFL is higher in protein stability index: 0.655 ± 0.05 for the first, 0.728 ± 0.012 for the second.

VMSGPSGARRIW and VMVVKSSSNTNI are within error of each other in protein stability index: 0.701 ± 0.055 for the first, 0.641 ± 0.0077 for the second.

VMWVGAGVSLSC and VNCFVYGKCCSG are within error of each other in protein stability index: 0.6411 ± 0.0041 for the first, 0.648 ± 0.072 for the second.

First: VPDRIFRSASQT
Second: VPFDFFVYFFEF
The protein stability index of the first is higher: 0.714 ± 0.0049 for the first, 0.5861 ± 0.0018 for the second.

Going from VPIRSGYLRPNF to VPLRLSTVSFGP, the protein stability index rises from 0.573 ± 0.038 to 0.746 ± 0.12.

VPPLFALAPPAP and VPPLPPDSCTVT are within error of each other in protein stability index: 0.681 ± 0.029 for the first, 0.699 ± 0.073 for the second.

VPPPPPCTIPFP and VPSLAVPPEGSV are the same in protein stability index: 0.678 ± 0.07 for the first, 0.678 ± 0.06 for the second.

First: VPSPLPLPPLAP
Second: VPVAGSFVGIRF
The protein stability index of the first is higher: 0.722 ± 0.036 for the first, 0.6753 ± 0.004 for the second.
